The record followed here is patent US20130195908A1.

Assay [1] has as its target Lyb-2.1 antigen expressed at the surface of B lymphocytes (mouse) (UniProt P21855). Put plainly: cell-based or functional assay.
Assay [2] addresses MHC class II molecule I-E^d expressed at the surface of A20 cells and mouse splenocytes (mouse) (UniProt P01904). Nature of the assay: cell-based or functional assay.
Assay [3] has the same target. Put plainly: flow cytometry on mouse splenocytes, 10 nM complex, B cells gated with anti-CD19-PE. In general terms: A flow cytometer gives signals particle by particle.

Sequence of UniProt P01904 (P01904 26-255, chain 1 of 2): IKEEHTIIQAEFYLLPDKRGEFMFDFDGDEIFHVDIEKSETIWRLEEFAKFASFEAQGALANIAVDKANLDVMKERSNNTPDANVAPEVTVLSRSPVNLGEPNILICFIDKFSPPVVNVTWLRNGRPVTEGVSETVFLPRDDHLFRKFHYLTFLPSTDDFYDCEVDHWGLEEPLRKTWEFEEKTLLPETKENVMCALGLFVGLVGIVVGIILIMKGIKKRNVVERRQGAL
Sequence of UniProt P01904 (P01915 32-264, chain 2 of 2, further chain): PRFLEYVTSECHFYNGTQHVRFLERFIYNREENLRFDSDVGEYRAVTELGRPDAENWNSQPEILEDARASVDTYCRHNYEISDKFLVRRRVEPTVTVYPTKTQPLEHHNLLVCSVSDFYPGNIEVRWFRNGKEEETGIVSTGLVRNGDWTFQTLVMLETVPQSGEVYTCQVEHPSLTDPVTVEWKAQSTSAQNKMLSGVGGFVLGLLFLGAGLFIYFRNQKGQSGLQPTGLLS
Sequence of UniProt P21855 (P21855 whole entry): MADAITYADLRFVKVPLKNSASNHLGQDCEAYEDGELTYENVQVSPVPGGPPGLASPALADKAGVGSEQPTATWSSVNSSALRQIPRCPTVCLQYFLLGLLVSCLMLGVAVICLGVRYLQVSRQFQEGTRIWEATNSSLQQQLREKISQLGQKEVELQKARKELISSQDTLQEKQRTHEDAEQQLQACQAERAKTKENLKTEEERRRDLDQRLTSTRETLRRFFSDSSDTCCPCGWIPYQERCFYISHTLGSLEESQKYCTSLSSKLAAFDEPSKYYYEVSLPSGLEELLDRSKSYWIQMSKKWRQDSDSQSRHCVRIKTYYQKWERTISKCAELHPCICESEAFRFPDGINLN

In assay [1], “10-1.D.2/ZZDTR-BD complex (mouse monoclonal IgG2a 10-1.D.2, anti-Lyb-2.1, complexed with ZZDTR-BD)” had an amount of ZZDTR-BD needed to reach the same level of T4B6 stimulation (IL-2 secretion), A20 cells as APCs, against free ZZDTR-BD of 3.8 times lower.

In assay [2], “14-4-4S/ZZDTR-BD complex (mouse monoclonal IgG2a 14-4-4S, anti-MHC class II I-E^d, complexed with ZZDTR-BD)” returned an amount of ZZDTR-BD needed to reach the same level of T4B6 stimulation (IL-2 secretion), A20 cells as APCs, against free ZZDTR-BD of 13.4 times lower and an amount of ZZDTR-BD needed to reach the same level of T4B6 stimulation (IL-2 secretion), splenocytes as APCs, against free ZZDTR-BD of 5.2 times lower. For the same substance, in assay [3], the percent of B lymphocytes labeled turned out to be 68.5%.
